Self-cleavage data for 167 variants are collected here from the RNAGym collection of RNA variant scans (doi:10.7554/elife.90254).

B1: LINE1-mini (parent)
chain: GGCAGAGCUCAACACAGCGUGGCAAAGUGGCUGUGGCUAGACUGCC

Variants of B1 are the subject of the data set. The experiment in a line: self-cleavage, relative activity (ratio to wild type); higher = more cleavage; in vitro, sequencing; the parent is a self-cleaving ribozyme.
Turning to C8A C42U, the self-cleavage was found to be 0.24. For C8A C42A, the self-cleavage turned out to be 0.29. To C8A G44C belongs 0.23; to C8A G44U, 0.43. To C8A G44A belongs 0.45; to G7U C15U, 0.1; to G7U C15G, 0.09. For G7U C15A, the self-cleavage worked out at 0.16. Take C8A C46G: the self-cleavage came to 0.33.

With C8A C46A, the self-cleavage was 0.35. C8A C46U: the self-cleavage was found to be 0.43. For the variant G7C C15A, the self-cleavage was 0.14. To G7C C15G belongs 0.08; to G7C C15U, 0.14. Consider G7C G27C, for which the self-cleavage worked out at 0.06. Turning to G7C G27U, the self-cleavage was determined as 0.11. As for G7C G27A, the self-cleavage was 0.09. In the case of G7C C8A, the self-cleavage was 0.32.

As to G7C C8U, the self-cleavage turned out to be 0.2.

As to G7C C8G, the self-cleavage was 0.29. For G7U U43G, the self-cleavage amounted to 0.32. Consider G7U U43C, for which the self-cleavage was determined as 0.18. For the variant G7U U43A, the self-cleavage was 0.11. Consider G7C C42G, for which the self-cleavage was found to be 0.1.

With G7C C42A, the self-cleavage was 0.08. Turning to G7C C42U, the self-cleavage was 0.09. On to C8A A26G, for which the self-cleavage turned out to be 0.21.

C8A A26C: the self-cleavage was determined as 0.26.

In the case of C8A A26U, the self-cleavage was 0.3. Consider C8A, for which the self-cleavage is 0.29. In the case of C8G, the self-cleavage stood at 0.13. As to G7U G29U, the self-cleavage came to 0.15. Consider G7U G29A, for which the self-cleavage turned out to be 0.06. Take G7U G29C: the self-cleavage is 0.03. Regarding C8A A16U, the self-cleavage came to 0.23. C8A A16C: the self-cleavage amounted to 0.25. Consider C8A A16G, for which the self-cleavage stood at 0.22.

In the case of G7U G33U, the self-cleavage turned out to be 0.13. Take G7U G33C: the self-cleavage was 0.15. In the case of G7U G33A, the self-cleavage amounted to 0.13. With G7C G36C, the self-cleavage stood at 0.1. Regarding G7C G36A, the self-cleavage came to 0.2. To G7C G36U belongs 0.1; to C8A C13A, 0.67; to C8A C13G, 0.36. With C8A C13U, the self-cleavage was determined as 0.9. For the variant G7U A26U, the self-cleavage amounted to 0.34. Take G7U A26G: the self-cleavage is 0.05. Turning to G7U A26C, the self-cleavage was found to be 0.24. Consider C8G A14U, for which the self-cleavage is 0.08. C8G A14C: the self-cleavage worked out at 0.11. As for C8G A14G, the self-cleavage was 0.08. For G7C G35A, the self-cleavage was 0.08.

In the case of G7C G35U, the self-cleavage worked out at 0.18. In the case of G7C G35C, the self-cleavage stood at 0.06. For the variant G7U C8G, the self-cleavage is 0.32. On to G7U C8A, for which the self-cleavage was found to be 0.3. In the case of G7U C8U, the self-cleavage came out at 0.34.

Regarding C8A U28C, the self-cleavage worked out at 0.25. For the variant C8A U28A, the self-cleavage is 0.17. C8A U28G: the self-cleavage amounted to 0.08. With C8A C37G, the self-cleavage came out at 0.1. For C8A C37U, the self-cleavage came out at 0.17. As for C8A C37A, the self-cleavage was determined as 0.12.

As to C8A C23G, the self-cleavage turned out to be 0.22.

Take C8A C23A: the self-cleavage is 0.25. For the variant C8A C23U, the self-cleavage is 0.27. For C8A G36C the value was 0.29; for C8A G36U, 0.22; for C8A G36A, 0.65. To G7U G22U belongs 0.14; to G7U G22C, 0.04; to G7U G22A, 0.08. As to G7U G44A, the self-cleavage is 0.09. Take G7U G44C: the self-cleavage was found to be 0.13. For the variant G7U G44U, the self-cleavage was determined as 0.2. Consider C8A A24C, for which the self-cleavage was found to be 0.31. For C8A A24G the value was 0.38.

Take C8A A24U: the self-cleavage is 0.34.

Take G7C C13G: the self-cleavage is 0.18.

Regarding G7C C13U, the self-cleavage is 0.14. G7C C13A: the self-cleavage worked out at 0.11. With C8A A11U, the self-cleavage amounted to 0.03. For C8A A11C, the self-cleavage worked out at 0.05.

For the variant C8A A11G, the self-cleavage is 0.04. Regarding G7U C18A, the self-cleavage worked out at 0.08. With G7U C18U, the self-cleavage stood at 0.14. With G7U C18G, the self-cleavage is 0.14. With G7U C13G, the self-cleavage was found to be 0.08. As for G7U C13A, the self-cleavage amounted to 0.14.

For the variant G7U C13U, the self-cleavage came out at 0.15. As to G7C G19A, the self-cleavage was 0.14.

For G7C G19U, the self-cleavage is 0.07. For G7C G19C the value was 0.05; for G7U C10U, 0.04.

Turning to G7U C10G, the self-cleavage was found to be 0.03. Consider G7U C10A, for which the self-cleavage worked out at 0.04. On to G7U C37U, for which the self-cleavage was determined as 0.03. To G7U C37A belongs 0.05; to G7U C37G, 0.01.

Regarding C8A C15U, the self-cleavage turned out to be 0.23. Take C8A C15A: the self-cleavage was determined as 0.37.

As for C8A C15G, the self-cleavage was 0.22. For G7U A14U, the self-cleavage came to 0.11. As to G7U A14C, the self-cleavage worked out at 0.09. To G7U A14G belongs 0.15. To C8A A41U belongs 0.48; to C8A A41G, 0.29. C8A A41C: the self-cleavage is 0.36.

G7U A25G: the self-cleavage is 0.1. For G7U A25C, the self-cleavage was found to be 0.06.

For the variant G7U A25U, the self-cleavage stood at 0.1. For G7C U20A the value was 0.06; for G7C U20C, 0.15; for G7C U20G, 0.12. As to G7U U38A, the self-cleavage worked out at 0.04. To G7U U38C belongs 0.05; to G7U U38G, 0.03. As to G7C C18U, the self-cleavage amounted to 0.19.

On to G7C C18G, for which the self-cleavage was 0.09. To G7C C18A belongs 0.12; to C8A G40U, 0.34; to C8A G40C, 0.22. In the case of C8A G40A, the self-cleavage was 0.27. For the variant G7U G30A, the self-cleavage was 0.11. Turning to G7U G30U, the self-cleavage amounted to 0.1. G7U G30C: the self-cleavage is 0.06. Consider G7C G33A, for which the self-cleavage turned out to be 0.06. For G7C G33C the value was 0.08; for G7C G33U, 0.07; for C8A C18G, 0.15. As to C8A C18U, the self-cleavage stood at 0.27. To C8A C18A belongs 0.37; to G7U C45U, 0.12; to G7U C45A, 0.16.

Turning to G7U C45G, the self-cleavage was 0.29. For the variant G7U U34G, the self-cleavage came to 0.05. For G7U U34C, the self-cleavage was determined as 0.09. In the case of G7U U34A, the self-cleavage stood at 0.08.

Turning to C8A A12U, the self-cleavage was 0.23. For the variant C8A A12C, the self-cleavage came out at 0.04. In the case of C8A A12G, the self-cleavage was determined as 0.11. For the variant G7C U38G, the self-cleavage came out at 0.02.

For G7C U38C, the self-cleavage stood at 0.1.

As for G7C U38A, the self-cleavage was found to be 0.07.

For G7U A16U, the self-cleavage came to 0.12.

For the variant G7U A16G, the self-cleavage worked out at 0.16. To G7U A16C belongs 0.09; to C8A U43G, 0.11. To C8A U43C belongs 0.17. Turning to C8A U43A, the self-cleavage stood at 0.14. Turning to G7U C42A, the self-cleavage was 0.06. Consider G7U C42U, for which the self-cleavage turned out to be 0.12. For the variant G7U C42G, the self-cleavage came out at 0.12. G7U U20A: the self-cleavage is 0.06. For G7U U20C the value was 0.07. Take G7U U20G: the self-cleavage came out at 0.08. As for C8A U32A, the self-cleavage is 0.16.

With C8A U32G, the self-cleavage is 0.45. On to C8A U32C, for which the self-cleavage was determined as 0.23. With C8A G27U, the self-cleavage worked out at 0.16. Take C8A G27A: the self-cleavage turned out to be 0.17.

C8A G27C: the self-cleavage worked out at 0.12. G7U: the self-cleavage turned out to be 0.1. For G7C G22U the value was 0.12; for G7C G22C, 0.08. For G7C G22A the value was 0.11.
